Test results from article PMC5224519, “Developing the IVIG biomimetic, Hexa-Fc, for drug and vaccine applications” (Scientific Reports, 2015).

Tests used:
[1] = target: soluble recombinant human DC-SIGN tetramers (human) (UniProt Q9NNX6); experiment: ELISA; binding to human DC-SIGN of Igs untreated or treated with PNGase F, Endo S or Endo H (Figure S8); format not told in the text shown
[2] = target: hIgG1-Fc-CL309/310CH-TP; experiment: non-reducing SDS-PAGE (blot and Coomassie); 5 μg purified Fc on 4-12% bis-Tris gradient gels, non-reducing or reducing; blot with goat anti-human IgG or Coomassie blue
[3] = target: soluble recombinant human DC-SIGN tetramers (human) (UniProt Q9NNX6); experiment: SPR; multichannel SPR (ProteOn XPR36); DC-SIGN or SIGNR1 amine-coupled on GLM chips; Ig preparations or gp120 as analytes, 25°C, 25 μl per minute; 1:1 Langmuir model
[4] = target: recombinant SIGNR1 (mouse) (UniProt Q8CJ91); experiment: as above
[5] = target: T1, soluble recombinant human DC-SIGN tetramers (human, UniProt Q9NNX6 1-404); experiment: as above; conditions: both partners purified
T1 construct: human DC-SIGN, soluble recombinant; also called dendritic cell-specific intercellular adhesion molecule-3-grabbing non-integrin
T1 sequence (looked up): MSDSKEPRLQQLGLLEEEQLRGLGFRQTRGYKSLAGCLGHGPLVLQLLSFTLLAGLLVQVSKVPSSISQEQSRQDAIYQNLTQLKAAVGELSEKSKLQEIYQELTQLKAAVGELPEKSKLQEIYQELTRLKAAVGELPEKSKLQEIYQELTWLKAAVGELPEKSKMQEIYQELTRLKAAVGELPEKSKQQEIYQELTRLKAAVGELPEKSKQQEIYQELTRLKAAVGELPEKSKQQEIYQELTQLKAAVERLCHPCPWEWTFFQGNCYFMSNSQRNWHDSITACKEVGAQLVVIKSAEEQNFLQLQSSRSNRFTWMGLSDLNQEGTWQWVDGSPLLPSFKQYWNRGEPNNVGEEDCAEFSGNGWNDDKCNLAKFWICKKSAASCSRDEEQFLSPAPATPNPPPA

[6] = target: T2, recombinant SIGNR1 (mouse, UniProt Q8CJ91 1-325); experiment: as above; conditions: both partners purified
T2 construct: mouse SIGNR1, soluble recombinant; also called the mouse orthologue of the human DC-SIGN; source: bought: R&D systems
T2 sequence (looked up): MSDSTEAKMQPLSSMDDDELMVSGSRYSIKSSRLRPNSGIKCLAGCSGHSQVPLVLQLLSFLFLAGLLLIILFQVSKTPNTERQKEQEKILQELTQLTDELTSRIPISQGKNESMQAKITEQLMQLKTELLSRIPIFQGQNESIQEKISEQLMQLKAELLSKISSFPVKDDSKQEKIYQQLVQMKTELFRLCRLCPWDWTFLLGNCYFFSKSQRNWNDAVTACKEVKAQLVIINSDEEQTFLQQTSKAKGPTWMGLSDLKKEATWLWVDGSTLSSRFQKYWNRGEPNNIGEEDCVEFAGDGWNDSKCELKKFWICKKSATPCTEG

## PNGase F treated human IgM (antibody)
[1]
  residual binding: 50%

## hIgG1-Fc-CL309/310CH-TP
[2]
  stoichiometry N: 6

## hexameric-Fc (hexa-Fc), hIgG1-Fc-TP-LH309/310CL
[3]
  Kd: 1260 nM
  koff: 0.000839 s⁻¹
  kon: 668 M⁻¹ s⁻¹

## recombinant HIV gp120 (natural protein)
[4]
  Kd: 3.91 nM
  koff: 9.46e-05 s⁻¹
  kon: 27700 M⁻¹ s⁻¹
[3]
  Kd: 4.39 nM
  koff: 0.000158 s⁻¹
  kon: 36000 M⁻¹ s⁻¹

B1: CHO cell derived recombinant (hexameric) IgM-Fc (domain or fragment)
chain: IAELPPKVSVFVPPRDGFFGNPRKSKLICQATGFSPRQIQVSWLREGKQVGSGVTTDQVQAEAKESGPTTYKVTSTLTIKESDWLGQSMFTCRVDHRGLTFQQNASSMCVPDQDTAIRVFAIPPSFASIFLTKSTKLTCLVTDLTTYDSVTISWTRQNGEAVKTHTNISESHPNATFSAVGEASICEDDWNSGERFTCTVTHTDLPSPLKQTISRPKGVALHRPDVYLLPPAREQLNLRESATITCLVTGFSPADVFVQWMQRGQPLSPEKYVTSAPMPEPQAPGRYFAHSILTVSEEEWNTGETYTCVVAHEALPNRVTERTVDKSTGKPTLYNVSLVMSDTAGTCY
modifications: CHO-cell N-glycans; disulfide-linked hexamer. Limits taken as Cmu2-Cmu4 plus tailpiece; needs the secreted isoform (453 aa), not the 474-aa membrane form displayed as P01871
[5]
  Kd: 260 nM
[6]
  Kd: 2200 nM
